# Laboratory results published in the RNAGym collection of RNA variant scans (doi:10.1073/pnas.2313332121).
# Fewer inactive variants are shown than the library holds.
# B1: TPR 5TU (parent)
# chain: GGAUCUUCUCGAUCUAACAAAAAAGACAAAUCUGCCACAAAGCUUGAGAGCAUCUUCGGAUGCAGAGGCGGCAGCCUUCGGUGGCGCGAUAGCGCCAACGUUCUCAACUAUGACACGCAAAACGCGUGCUCCGUUGAAUGGAGUUUAUCAUG
# Variants of: B1
# Experiment: polymerase ribozyme fitness, log enrichment relative to wild type (log ratio); higher = more active; in vitro selection for triplet polymerase activity
# Procedure, shortened: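 Libraries of mutants in each subunit of a heterodimeric triplet polymerase ribozyme were generated by PCR and transcribed. In triplicate, each went through one in vitro selection round: annealing with biotinylated primer, partner subunit and triplets; frozen incubation at −7 °C; gel excision of extended constructs; streptavidin-bead capture; RT-PCR. Fitness, taken from Illumina sequencing of input and output libraries, is the logarithm of a genotype's enrichment over wild-type enrichment, averaged across replicates with inverse-variance weights. The logarithm is base 2, and genotypes needed ≥10 input reads and ≥1 read per output to be kept.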
row,Variant,polymerase ribozyme fitness (log ratio)
1,A23C G133A U135C G141A A150C,≤ -4.2
2,A24G G25A G84A C125G G152A,≤ -4.2
3,A22C G62U A73U G88U C99U C118A U144C,≤ -4.2
4,A22U G86A G92U,-1.74
5,A22G A23U U53G C57A G84U C114U C129U,≤ -4.2
6,A22U A39C U61A C72U C85G G141A,≤ -4.2
7,A22C C125U,-0.469
8,A22U U82G C93A G124U C125U,-2.61
9,A22U C85U,-0.371
10,A21U C75G G86A U101C,-4.03
11,A24C G50C U56A C93U G94C U148C,≤ -4.2
12,A22C U56A C57U U104G U135C,-3.35
13,A22C G86U C131A,≤ -4.2
14,A23C U144C,-4.15
15,A22U G84U,-1.67
16,A21U G58C A73G C85G,-1.7
17,A23U G50A C95U A137G,≤ -4.2
18,A23G A26U G94C A110C,≤ -4.2
19,A24C G42A A52G U55A C76U C123G G126A,≤ -4.2
20,A23G C54G U56A A142C,≤ -4.2
21,A22C A24C U61G G88U,≤ -4.2
22,A21U U31A C85A,-0.251
23,A22G C51G A91U G94U U144C,≤ -4.2
24,A22G U44A C85A,≤ -4.2

row,Variant,polymerase ribozyme fitness (log ratio)
1,A23G C35U U56A C85A C118U G124U,-4.08
2,A23U A41G,-3.88
3,A22U C27U G86U,-3.28
4,A24G C57A G59U C75A U90G C103G C108U A110C G133U G141C,≤ -4.2
5,A24G C35U A89U G92C C125A,≤ -4.2
6,A22U C36G C105G,≤ -4.2
7,A23U C96U U127C U144G A150G,≤ -4.2
8,A23C G58A G62A C87A C116G U135G,≤ -4.2
9,A23C C27U A29G C87U A110G,≤ -4.2
10,A22U C96U A121U U139A,-4.03
11,A24G A49C C51A U78G G81C,≤ -4.2
12,A22C C57A C118U,-1.03
13,A22C A47C A73U G83U G84A C95U C103G C116U G140C,≤ -4.2
14,A22C G34U U82A C93A,≤ -4.2
15,A23U A52G C76U C79A C103A,≤ -4.2
16,A23U G42C G88C C105G C116G,≤ -4.2
17,A23C U45C A52C U55A C75G C76U C93A A119G G143U,-4.17
18,A23U A29G U101C,≤ -4.2
19,A22U G140A,-2.83
20,A24G U44A A49C U82G A122U G140C C149U,-4.02
21,A22U C35U U55A G59A G65A C85U C105A,≤ -4.2
22,A22C C27G A66U U145C,≤ -4.2
23,A23U G42U G58U C75U U148G,≤ -4.2
24,A21U C96G G143U,-3.69

row,Variant,polymerase ribozyme fitness (log ratio)
1,A24C G58A,≤ -4.2
2,A24G G141C G143C,≤ -4.2
3,A24G A47G G48A C75U G86A,≤ -4.2
4,A23U C93A U135C,≤ -4.2
5,A22U G50C U53G G88C C93U C96U C108U,≤ -4.2
6,A22C A52G G71A C79G C87G C99G C114G U127G C129A A142C,≤ -4.2
7,A24C U53A G81C C95U G141A,≤ -4.2
8,A23G U44G U53G A91C C95U C103A G117A A121C G126A,≤ -4.2
9,A23U U53G,≤ -4.2
10,A24C C85U,-3.65
11,A24G G71C C79G C85A G124U U130G U148C,≤ -4.2
12,A24C G67C C87U A122U A142G,≤ -4.2
13,A24G C51G G59C G92C C99U C125U,≤ -4.2
14,A21U C76G,≤ -4.2
15,A22G G117A,1.13
16,A22C G42U A49G C51U G92A U130G,≤ -4.2
17,A22U A23C,-4
18,A21U G84A G141A,0.99
19,A23G A49U A60G A119U A120U A122C,-3.98
20,A23C A39U G46U U90A C96A C99U C114G G141C,≤ -4.2
21,A22U G141C,1.14
22,A22G U144C,0.51
23,A21U U56A G140A G141A,-4.17
24,A22U G46A,0.387

row,Variant,polymerase ribozyme fitness (log ratio)
1,A22U G80A,0.375
2,A22U A52U U78A C85U U127A A137C,≤ -4.2
3,A22U C63U,0.542
4,A22C G46A G59C A91C C99G U101G C116G A138C,≤ -4.2
5,A22C A29U A41G G50C U77A C85U C93G G141C,≤ -4.2
6,A24G G50C C72U C87G U111C,≤ -4.2
7,A22C G86C,-2.83
8,A22U A29G C35G U44G C57U C114A,≤ -4.2
9,A23U G68A A73U C99U,≤ -4.2
10,A24C C27A U56A G58A C72U A73U C87U,≤ -4.2
11,A23G A40C G141C,-3.82
12,A22C A26U U31C A37C U56C A73C A91C,≤ -4.2
13,A23C C79A C103U A138G G143C,≤ -4.2
14,A23U U55A U61C G67A C87U G126U G136C G140U,≤ -4.2
15,A22U C57U U78A C79U G84C G117C,≤ -4.2
16,A24C A40U G94A C116A,≤ -4.2
17,A23G C38U U61A C69A C76U C96G C116U G117U,≤ -4.2
18,A21U G80A,-0.249
19,A24G G92A A121U A147G,≤ -4.2
20,A24G G124U,-4.06
21,A21U C85U,-0.171
22,A23U A29U,-3.88
23,A23G A73U G81C,-4.17
24,A22C A41C G50A A115G,-3.63

row,Variant,polymerase ribozyme fitness (log ratio)
1,A21U G92A,-2.72
2,A23U C72U G83A U109A U151G,≤ -4.2
3,A22U A24G U31A U56G C79U U90G C95U A97C A120U C125G,≤ -4.2
4,A23C G25C C27G U53A C54G A66G G80A A91G G92A C99U,≤ -4.2
5,A22U C43U A47C A91C C108U A115U A121C,≤ -4.2
6,A22C U53A G84C G112A C129A U134G A147C,≤ -4.2
7,A23G A52U,-3.51
8,A24C U56G G59C A91U U144C G152U,≤ -4.2
9,A22U C99U U101G A115U U151G,≤ -4.2
10,A21U C85A A97U,-2.01
11,A22G C32U A120G C125U,-3.24
12,A22U C35A U55A U56G G74A C85G,≤ -4.2
13,A22C A52G A106C C118U A142G,-3.06
14,A22C A26U C43U C76A C93G C118G,≤ -4.2
15,A22U A47G U56C G92C C105U,-3.13
16,A24C C32U A39U U90A C95G A138U U144A,≤ -4.2
17,A22C G84A C99A G152U,≤ -4.2
18,A22C C27G A37C A73G U146A G152U,≤ -4.2
19,A22C U33A G50A A66U C93U G100C A138G C149A,≤ -4.2
20,A21U U55A C93G A97U A115U,≤ -4.2
21,A22G U31C G94C,0.086
22,A23G C35U C51U C93G A121G A122U,≤ -4.2
23,A22U U56A A106U A107C A142G,≤ -4.2
24,A21U G34A C93U C99G C149G,≤ -4.2

row,Variant,polymerase ribozyme fitness (log ratio)
1,A22G C54U,0.651
2,A22U C57G C93G U151G,≤ -4.2
3,A21U U82G C93G,-3.69
4,A22G U53C C54U U78C G117A,-1.92
5,A22C C57U A60U C69G,-1.7
6,A24G C32A C38A U45A C57U A106U C118U,≤ -4.2
7,A22U C38U C51U U53A C54A C85G,≤ -4.2
8,A22C A52U U82C G86U A97G,-3.83
9,A22G G92A C108G,≤ -4.2
10,A23U U61A A107U A115G,≤ -4.2
11,A22G C51U G83A,0.818
12,A23U U56A A73U G86A C93G C131G U139C,≤ -4.2
13,A23C A60G C96A C118U,≤ -4.2
14,A21U C85U G124A G126A G136A,-3.04
15,A22U C57U G70A G81C G83C G100C A106C G133C,≤ -4.2
16,A23U A29C C85G A110G G112U,≤ -4.2
17,A24C U33A C35G U53A U82C G92U G136A,≤ -4.2
18,A22U A41C G70C U82G,≤ -4.2
19,A23U A60G G81A G83U,≤ -4.2
20,A23C G48C G68C C99U U101C A122U U144G,≤ -4.2
21,A22C C85A A137G,-2.49
22,A22C A39G U144C,-4.03
23,A22U A29C A47G U134C U139A,≤ -4.2
24,A23C U53A C93U U134G,≤ -4.2

row,Variant,polymerase ribozyme fitness (log ratio)
1,A23G U44A G88A,-4.1
2,A22U C54A A91G,-3.53
3,A22C C76A G128U C129U,≤ -4.2
4,A24G C108U U148G,≤ -4.2
5,A23U A49C U61G C87A,≤ -4.2
6,A22G C85U G133C,-1.48
7,A23G C32G C57U G74A C93U U101G A137U,≤ -4.2
8,A23C G67A A73U C96U G140C,≤ -4.2
9,A23U C85A,≤ -4.2
10,A22C A40U C54U G94A,-0.982
11,A23C U44G A47U A91U A122U,≤ -4.2
12,A23C C51U G58A C75U C85G G143A U145G,≤ -4.2
13,A24G G62U C85U U146A,≤ -4.2
14,A23C A47G C96A,≤ -4.2
15,A22C A26G A30U U45G G74C C103G G140U,≤ -4.2
16,A22G A24G G92U,≤ -4.2
17,A22G U53C U82G A98U,0.397
18,A22G U56A C96G U101C G143A U148A,≤ -4.2
19,A21U G83C C95U,-1.58
20,A23U G42C G83A,≤ -4.2
21,A23U U33A U45A G46A C96U,-4.15
22,A22U A52C G58C G84U C99A,≤ -4.2
23,A22C A60G C87U,0.179
